{
  "source": "patent US20260234209A1",
  "binders": {"B1": {"name": "C4-71C_mb7 (designed binder)", "chain": "MGPEEILERARESLERAREASERGDEEEFRKAAEKALELAKRLVEQAKKEGDPWMVMWAALVALWVALLALRNGDKEVFKKAAESALEVAKRLVEVASKEGDPEMVLLAAWVALFVAWLAWLFGDKEVFKKAAESALEVAKRLVEVASKEGDPELVEEAAKVAEEVEKLAEKQGDEEVREKAWETWMEVWLLWLEVRLRKGGGGSDRRKEMDKVYRTAYKRITSTPDKEKRKEVVKEATEQLRRIAKDEEEKKKAAYMISFLKTLGSLEHHHHHH"}, "B2": {"name": "C6-79C_mb7 (designed binder)", "chain": "MGSSDEEEARELEERAREAAKRAIEAAKRTGDPRVRELAEELVKLAIWAAVEVWLDPSSSDVNEALKLIVEAIEAAVRALEAAERTGDPEVRELARELVRLAVEAAEEVQRNPSSSDVNEALKLIVIAIEAAVRALEAAERTGDPEVRELARELVRLAVEAAEEVQRNPSSEEVNEALRKIIKLILFAVMVLELAEEIGDPTWREMARRAVREAVELAEEVQRDPSGWLGHGSDRRKEMDKVYRTAYKRITSTPDKEKRKEVVKEATEQLRRIAKDEEEKKKAAYMISFLKTLGSLEHHHHHH"}, "B3": {"name": "C4-71N_mb7 (designed binder)", "chain": "MGDRRKEMDKVYRTAYKRITSTPDKEKRKEVVKEATEQLRRIAKDEEEKKKAAYMISFLKTLGSPEEILERARESLERAREASERGDEEEFRKAAEKALELAKRLVEQAKKEGDPWMVMWAALVALWVALLALRNGDKEVFKKAAESALEVAKRLVEVASKEGDPEMVLLAAWVALFVAWLAWLFGDKEVFKKAAESALEVAKRLVEVASKEGDPELVEEAAKVAEEVEKLAEKQGDEEVREKAWETWMEVWLLWLEVRLRKGGGGSLEHHHHHH"}, "B4": {"name": "C2-58-2X_mb7 (designed binder)", "chain": "MHHHHHHAENLYFQSGSDEELLRELLKLLLKLLEQMGDEEARRVVEELREELEKKGDPRALVLAFALVILVFLLRILRELGDEELVRRVEELWEELLKEGDPQAMMEVFKLVQELQERRGSGSDRRKEMDKVYRTAYKRITSTPDKEKRKEVVKEATEQLRRIAKDEEEKKKAAYMISFLKTLGS"}, "B5": {"name": "C8-71C_mb7 (designed binder)", "chain": "MEKKIGPEEILERAKESLERAREASERGDEEEFRKAAEKALELAKRLVEQAKKEGDPELVLEAARVALWVAELAAKNGDKEVFKKAAESALEVAKRLVEVASKEGDPDLVAWAALVALWVAFLAFLNGDKEVFKKAAESALEVAKALMEVAMKVGAPWLVELAIAVARAVWLLAELFGDEEVRRRAEAFEIILRIAAIAVKAWLGGGGSDRRKEMDKVYRTAYKRITSTPDKEKRKEVVKEATEQLRRIAKDEEEKKKAAYMISFLKTLGSLEHHHHHH"}},
  "data": [
    {"biological_target": "human FGFR1c (human), P11362", "sequence (P11362 22-822)": "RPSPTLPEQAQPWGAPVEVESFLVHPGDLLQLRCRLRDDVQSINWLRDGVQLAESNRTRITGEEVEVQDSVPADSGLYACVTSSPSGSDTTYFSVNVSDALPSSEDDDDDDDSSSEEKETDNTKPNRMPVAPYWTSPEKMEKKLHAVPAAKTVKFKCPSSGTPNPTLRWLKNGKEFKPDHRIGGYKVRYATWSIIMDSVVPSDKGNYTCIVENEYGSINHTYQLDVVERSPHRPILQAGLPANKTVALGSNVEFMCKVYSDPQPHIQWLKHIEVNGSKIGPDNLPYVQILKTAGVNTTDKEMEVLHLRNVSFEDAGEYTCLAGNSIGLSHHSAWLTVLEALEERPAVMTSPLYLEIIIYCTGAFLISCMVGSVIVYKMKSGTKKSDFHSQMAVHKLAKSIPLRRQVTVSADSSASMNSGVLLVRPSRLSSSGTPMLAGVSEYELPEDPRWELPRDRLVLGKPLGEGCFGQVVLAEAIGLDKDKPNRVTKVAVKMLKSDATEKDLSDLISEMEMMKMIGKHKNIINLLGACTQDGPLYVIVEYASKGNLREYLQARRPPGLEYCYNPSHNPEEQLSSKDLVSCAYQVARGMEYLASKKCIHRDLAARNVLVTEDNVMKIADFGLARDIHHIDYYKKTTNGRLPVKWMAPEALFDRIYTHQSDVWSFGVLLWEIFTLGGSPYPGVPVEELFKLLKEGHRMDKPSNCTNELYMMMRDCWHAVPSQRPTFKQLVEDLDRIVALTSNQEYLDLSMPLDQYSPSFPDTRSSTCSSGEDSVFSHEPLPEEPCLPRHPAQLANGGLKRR", "test": "cell-based or functional assay", "units": {"EC50 of ERK1/2 phosphorylation (phosphoflow) in CHO-R1c cells": "nM", "EC50 of intracellular calcium release in CHO-R1c cells": "nM", "EC50 of ERK phosphorylation (phosphoflow), C4-71N mb7 extension series": "nM"}, "values": [
      {"binder": "B1", "EC50 of ERK1/2 phosphorylation (phosphoflow) in CHO-R1c cells": 1.33, "EC50 of intracellular calcium release in CHO-R1c cells": 0.72},
      {"binder": "B2", "EC50 of ERK1/2 phosphorylation (phosphoflow) in CHO-R1c cells": 1.56, "EC50 of intracellular calcium release in CHO-R1c cells": 0.38},
      {"binder": "B3", "EC50 of ERK1/2 phosphorylation (phosphoflow) in CHO-R1c cells": 0.89, "EC50 of ERK phosphorylation (phosphoflow), C4-71N mb7 extension series": 1.3},
      {"binder": "B4", "EC50 of ERK1/2 phosphorylation (phosphoflow) in CHO-R1c cells": 0.63, "EC50 of intracellular calcium release in CHO-R1c cells": 26},
      {"binder": "B5", "EC50 of ERK1/2 phosphorylation (phosphoflow) in CHO-R1c cells": 2.07, "EC50 of intracellular calcium release in CHO-R1c cells": 3.09}
    ]}
  ]
}
